Reference: patent publication US20230242902A1, “A HIGHLY ERROR-PRONE […] R[…] FOR TARGETED CONTINUOUS EVOLUTION IN VIVO” (The Regents of the University of California, priority 2017, published 2023)
Positions count from the first letter of the chain named. In names and notes the source's numbering stands.

B1: Y313H: TP-DNAP1 variant (protein)
chain: MDYKDKALNDLRNVYADFDSLPLDFRQILIKDRATLLQKEDVEKKILERQEDAKKYAEYLKQSEIPERISLPNIKRHKGVSISFEETSEDMVLEPRPFIFDGLNIRCFRRETIFSLKNKILNMVKESSSFKNVSRQSVSFMYFKIFNKGKVIASTKSVNIYEDKIDERLEDLCNNFDDVLKKIIDVTYGYESLFVSETYSYVIFYAKSIYFPQPRCVNNWGNNIPNILTFDSFKLFTANKNNVSCIKQCSRFLWQKDFNTLEEMIEYKNGNICIVTPQLHINDVRDIKSFNDIRLYSESPIKTFSVIDNTITHLFYFKEHLGVIFNITKSRHDRRVTKFSPLSKFSDVKNITVCFDIESYFDPEKESNQVNIPFICCASIIYNKVIGNIVDFEGRDCVAQMIEYVVDICGELNISSVELIAHNGGGYDFHYILSSMYNPAAIKNILIRNNSFISFNFAHDGVKFSVKDSYSFLLCSLANASKAFLNEETFKKTDFPHHDLKTADDLYKVYKEWSSVNTEINHVVEKEKLLITSEHIVNFTKNDKSKTLIEWSKDYCRNDVLVLSKVWLEFKNAVEDIFNCELVDQTMTLAGLSYKLFQANMPFDVELRHPNKEDYFNMREALIGGRCISVNGIYKDVLCLDVKSLYPASMAFYDQPYGSFKRVSSRPKDELGIYYVRVTPNRNNKSNFFPIRSHNKITYNNFEESTYIAWYTNVDIDIGLSEGHNIEYIPFDSYGNIGYSWSKKGKIFEKYIKDVLYKLKIKYEKQNNKVKRNVIKIIMNSLWGKFAQKWVNFEYFIKSEDDIDFESEEAYKIWDTDFMLIKKIKESTYSSKPIQNGVFTLSWARYHMKSIWDAGAKEGAECIYSDTDSIFVHKEHFKKNAKFMLNGLKVPIIGSEVGQLELECEFDKLLCAGKKQYMGFYTYFQDGKPCIKEKKRFKGIPSNYIIPELYAHLLSGADKEAKIQFLKFRREWGSVKGYIENKTVKAT
B2: Y313M: TP-DNAP1 variant (protein)
chain: B1 chain with H313M
B3: Y313F: TP-DNAP1 variant (protein)
chain: B1 chain with H313F
B4: Y313W: TP-DNAP1 variant (protein)
chain: B1 chain with H313W
B5: Y313V: TP-DNAP1 variant (protein)
chain: B1 chain with H313V
B6: Y316R: TP-DNAP1 variant (protein)
chain: B1 chain with H313Y, Y316R
B7: I327Q: TP-DNAP1 variant (protein)
chain: B1 chain with H313Y, I327Q
B8: S330R: TP-DNAP1 variant (protein)
chain: B1 chain with H313Y, S330R
B9: D333A: TP-DNAP1 variant (protein)
chain: B1 chain with H313Y, D333A
B10: D333N: TP-DNAP1 variant (protein)
chain: B1 chain with H313Y, D333N
B11: D333N, K344R: TP-DNAP1 variant (protein)
chain: B1 chain with H313Y, D333N, K344R
B12: D333M: TP-DNAP1 variant (protein)
chain: B1 chain with H313Y, D333M
B13: D333T: TP-DNAP1 variant (protein)
chain: B1 chain with H313Y, D333T
B14: D333V: TP-DNAP1 variant (protein)
chain: B1 chain with H313Y, D333V
B15: K365N: TP-DNAP1 variant (protein)
chain: B1 chain with H313Y, K365N
B16: I372C: TP-DNAP1 variant (protein)
chain: B1 chain with H313Y, I372C
B17: Y382A: TP-DNAP1 variant (protein)
chain: B1 chain with H313Y, Y382A
B18: Y382V: TP-DNAP1 variant (protein)
chain: B1 chain with H313Y, Y382V
B19: V385W: TP-DNAP1 variant (protein)
chain: B1 chain with H313Y, V385W
B20: G387H: TP-DNAP1 variant (protein)
chain: B1 chain with H313Y, G387H
B21: R395P: TP-DNAP1 variant (protein)
chain: B1 chain with H313Y, R395P
B22: V406C: TP-DNAP1 variant (protein)
chain: B1 chain with H313Y, V406C
B23: V406Q: TP-DNAP1 variant (protein)
chain: B1 chain with H313Y, V406Q
B24: D407V, S415T: TP-DNAP1 variant (protein)
chain: B1 chain with H313Y, D407V, S415T
B25: D407A: TP-DNAP1 variant (protein)
chain: B1 chain with H313Y, D407A
B26: D407C: TP-DNAP1 variant (protein)
chain: B1 chain with H313Y, D407C
B27: D407G: TP-DNAP1 variant (protein)
chain: B1 chain with H313Y, D407G
B28: D407H: TP-DNAP1 variant (protein)
chain: B1 chain with H313Y, D407H
B29: D407M: TP-DNAP1 variant (protein)
chain: B1 chain with H313Y, D407M
B30: I287M: TP-DNAP1 variant (protein, listed as Kluyveromyces lactis)
chain: B1 chain with I287M, H313Y
B31: D407F: TP-DNAP1 variant (protein)
chain: B1 chain with H313Y, D407F
B32: D407T: TP-DNAP1 variant (protein)
chain: B1 chain with H313Y, D407T
B33: G410R: TP-DNAP1 variant (protein)
chain: B1 chain with H313Y, G410R
B34: G410E: TP-DNAP1 variant (protein)
chain: B1 chain with H313Y, G410E
B35: G410Q: TP-DNAP1 variant (protein)
chain: B1 chain with H313Y, G410Q
B36: G410H: TP-DNAP1 variant (protein, listed as Kluyveromyces lactis)
chain: B1 chain with H313Y, G410H
B37: G410I: TP-DNAP1 variant (protein)
chain: B1 chain with H313Y, G410I
B38: G410L: TP-DNAP1 variant (protein)
chain: B1 chain with H313Y, G410L
B39: G410K: TP-DNAP1 variant (protein)
chain: B1 chain with H313Y, G410K

System: p1
Experiment: p1 copy number by p1-encoded mKate2 fluorescence
Type: cell-based, S. cerevisiae
Settings: OR-Y24, measured in triplicate
How it was run: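 Steps: transform TP-DNAP1 variant into OR-Y24; passage until w.t. p1 displaced; dilute 1:10,000 and grow to saturation in triplicate; measure p1-encoded mKate2 fluorescence; convert to copy number via linear qPCR-based calibration. Four high-copy variants were checked directly by qPCR.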

Molecule	Mean fold-increase over w.t. (p1 copy number) [fold]
B1	3.08
B2	1.94
B3	2.11
B4	2.15
B5	2.48
B6	2.46
B7	2.15
B8	2.21
B9	1.57
B10	2.07
B11	2.07
B12	2.6
B13	2.41
B14	2.18
B15	1.89
B16	1.73
B17	1.6
B18	1.62
B19	1.41
B20	1.57

Molecule	Mean fold-increase over w.t. (p1 copy number) [fold]
B21	1.91
B22	2.34
B23	2.16
B24	1.95
B25	2.25
B26	2.26
B27	2.53
B28	2.57
B29	2.71
B30	2.39
B31	2.28
B32	3.95
B33	2.87
B34	2.37
B35	2.2
B36	2.19
B37	2.57
B38	2.57
B39	2.53
